Results from paper PMC6643034, “A knottin scaffold directs the CXC-chemokine–binding specificity of tick evasins” (The Journal of Biological Chemistry, 2019).

B1: Evasin 3 (EVA3) (natural protein)
chain: DGGLVSTIESRTSGDGADNFDVVSCNKNCTSGQNECPEGCFCGLLGQNKKGHCYKIIGNLSGEPPVVRR
modifications: also: glycosylated
notes: residues expected at the N terminus after cleavage of the Igκ signal peptide (SignalP 3.0); Evasin-3 (EVA3_RHISA), Rhipicephalus sanguineus, mature peptide; class I founder; also called EVA3_RHISA; WT EVA3; source: HEK293F, transiently transfected, secreted; purified (nickel IMAC, SEC)
B2: P1126_AMBCA (natural protein)
chain: KPQILQRTDKSTDSEWDPQTCPETCIPSKNITCSDGCVCVKLGEEEEGTCFNMTGVDWLGSPSDD
notes: evasin P1126, mature peptide, 65 residues; N-terminal DGG expected after signal peptide cleavage; glycosylated
B3: CXCL11 (ligand, human, UniProt O14625 22-94, looked up)
chain: FPMFKRGRCLCIGPGVKAVKVADIEKASIMYPSNNCDKIEVIITLKENKGQRCLNPKSKQARLIIKKVERKNF
notes: human CXCL11
B4: P1142_AMBCA (natural protein)
chain: KPQILQRTDHSTDSDWDPQMCPETCNPSKNISCSSECLCVTLGGGDETGTCFNMSGVDWLGHAQASDGHNDG
notes: evasin P1142, mature peptide, 72 residues; N-terminal DGG expected after signal peptide cleavage; glycosylated
B5: CXCL13 (ligand, human, UniProt O43927 23-109, looked up)
chain: VLEVYYTSLRCRCVQESSVFIPRRFIDRIQILPRGNGCPRKEIIVWKKNKSIVCVDPQAEWIQRMMEVLRKRSSSTLPVPVFKRKIP
notes: human CXCL13
B6: P942_IXORI (natural protein)
chain: NQLSGPQSSANSNEAVFCDTNCTQGTDEAWSGCRGDCFCVYVGNSTEGRCMMLSGDFDYSTPGAED
notes: evasin P942, mature peptide, 66 residues; N-terminal DGG expected after signal peptide cleavage; glycosylated
B7: EVA3_RHISA (natural protein)
chain: LVSTIESRTSGDGADNFDVVSCNKNCTSGQNECPEGCFCGLLGQNKKGHCYKIIGNLSGEPPVVRR
notes: N-terminal DGG expected after signal peptide cleavage; glycosylated; also called evasin 3; Evasin-3
B8: P1078_IXORI (natural protein)
chain: GSKGSSAQQSSHDSIKAEFCETNCTMKTGGKWTQCHGGCFCVHVGNETVGRCIKLDGDYDYPSSKHEE
notes: evasin P1078, mature peptide, 68 residues; N-terminal DGG expected after signal peptide cleavage; glycosylated
B9: P1100_IXORI (natural protein)
chain: GSKGSSASQSSDNSVVAKFCDTNCTINEGGKWTECKGGCFCVHVGNETVGRCMKLDGDYDYPSPKPEE
notes: evasin P1100, mature peptide, 68 residues; N-terminal DGG expected after signal peptide cleavage; glycosylated
B10: P1086_IXORI (natural protein)
chain: GSKGQRASQVSETSITAEFCDTSCTQGTDKTWSGCSGDCFCVHVGNDTEGRCMRWDGDYPSAEEEE
notes: evasin P1086, mature peptide, 66 residues; N-terminal DGG expected after signal peptide cleavage; glycosylated

Tests used:
Details in all cases: both partners purified
[1] = target: T1, CXCL2 (human, UniProt P19875 35-107); assay: BLI; OctetRed; parental evasins and domain-swap hybrids held by the His tag; titration with chemokine from 600 to 0.4 nM; fit criterion R2 ≥ 0.89, five (in four cases four) concentrations
T1 construct: human CXCL2 of the panel of human chemokines used for biolayer interferometry

[2] = target: T2, CXCL3 (human, UniProt P19876 35-107); assay: as above
T2 construct: human CXCL3 of the panel of human chemokines used for biolayer interferometry

[3] = target: T3, CXCL10 (human, UniProt P02778 22-98); assay: BLI; cross-binding screen on OctetRed; evasin held on a nickel-coated biosensor through its C-terminal His tag; each human chemokine at 300 nM
T3 construct: human CXCL10

[4] = target: B3; assay: as above
[5] = target: T4, CXCL3 (human, UniProt P19876 35-107); assay: as above
T4 construct: human CXCL3

[6] = target: T5, CXCL2 (human, UniProt P19875 35-107); assay: as above
T5 construct: human CXCL2

[7] = target: T6, CXCL1 (human, UniProt P09341 35-107); assay: as above
T6 construct: human CXCL1

[8] = target: T7, P1080_IXORI (Ixodes ricinus, UniProt A0A090XBL6 20-118); assay: as above
T7 construct: evasin P1080, mature peptide, 99 residues; N-terminal DGG expected after signal peptide cleavage; glycosylated

[9] = target: T3, CXCL10; assay: as above; remark: listed apart in the source
[10] = target: B3; assay: as above; remark: listed apart in the source
[11] = target: B5; assay: as above
[12] = target: T4, CXCL3; assay: as above; remark: listed apart in the source
[13] = target: T5, CXCL2; assay: as above; remark: listed apart in the source
[14] = target: T6, CXCL1; assay: as above; remark: listed apart in the source
[15] = target: T4, CXCL3; assay: as above; remark: listed apart in the source
[16] = target: T5, CXCL2; assay: as above; remark: listed apart in the source
[17] = target: T6, CXCL1; assay: as above; remark: listed apart in the source

Measured: binding result

T7 sequence (A0A090XBL6 20-118): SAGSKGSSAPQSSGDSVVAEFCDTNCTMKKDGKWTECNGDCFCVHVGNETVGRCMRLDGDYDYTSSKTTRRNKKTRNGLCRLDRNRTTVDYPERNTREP

B1
binds: [1] | [2]

B2
binds: [3] | [4] | [5] | [6] | [7]

B3
binds: [8]

B4
binds: [3] | [4] | [5] | [6] | [7]

B5
binds: [8]

B6
binds: [9] | [10] | [11] | [12] | [13] | [14]

B7
binds: [15] | [16] | [17]

B8
binds: [10] | [11] | [12] | [13] | [14]

B9
binds: [9] | [10] | [11] | [12] | [13] | [14]

B10
binds: [9] | [11] | [12] | [13] | [14]
